Consider one molecule from patent US20200063100A1 (CRISPR THERAPEUTICS, published 2020).

The target of this assay is T1, biotinylated recombinant human BCMA (ACROS Cat# BC7-H82F0) (human, UniProt Q02223 1-54, biotinylated).
T1 construct: Bought reagent; also called biotinylated Human BCMA Protein, ACRO Biosystems; recombinant BCMA protein
T1 sequence (looked up): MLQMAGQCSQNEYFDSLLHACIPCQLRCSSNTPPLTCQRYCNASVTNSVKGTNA
Description: flow cytometry, CAR T cells stained with biotinylated antigen. (In general: A flow cytometer gives signals particle by particle.)

B1: anti-BCMA CAR, expressed on gene-edited human T cells (other)
chain: QVQLVQSGAELKKPGASVKVSCKASGNTLTNYVIHWVRQAPGQRLEWMGYILPYNDLTKYSQKFQGRVTITRDKSASTAYMELSSLRSEDTAVYYCTRWDWDGFFDPWGQGTTVTVSSGGGGSGGGGSGGGGSEIVMTQSPATLSVSPGERASISCRASQSLVHSNGNTHLHWYQQRPGQAPRLLIYSVSNRFSEVPARFSGSGSGTDFTLTISSVESEDFAVYYCSQTSHIPYTFGGGTKLEIKSAAAFVPVFLPAKPTTTPAPRPPTPAPTIASQPLSLRPEACRPAAGGAVHTRGLDFACDIYIWAPLAGTCGVLLLSLVITLYCNHRNRKRGRKKLLYIFKQPFMRPVQTTQEEDGCSCRFPEEEEGGCELRVKFSRSADAPAYQQGQNQLYNELNLGRREEYDVLDKRRGRDPEMGGKPRRKNPQEGLYNELQKDKMAEAYSEIGMKGERRRGKGHDGLYQGLSTATKDTYDALHMQALPPR
notes: also called anti-BCMA (4-1BB co-stim) CAR
With B1, the binding result was “binds”.
